7 molecules from patent US8093037B2, “Engineered microorganisms with enhanced fermentation activity” (Verdezyne, Inc., priority 2009, dated 2012) can be followed below.

A short description of data set [1]: Heterologous xylose isomerase expression in yeast (active yes/no). The class given is cell-based, Saccharomyces cerevisiae. The following applies: xylose isomerase of donor organism expressed in engineered yeast (S. cerevisiae).
The target of data set [2] is xylose isomerase. The data set is described as follows: Xylose isomerase assay in the presence of xylitol (inhibition constant). The class given is biochemical. The conditions noted are these: chimeric variants table; inhibitor xylitol.
Method: Approximately 20 μg of soluble whole cell extract from each transformed cell line, prepared using Y-PER plus reagent as described above, was incubated in a solution containing about 100 mM Tris, pH 7.5, 10 mM MgCl ? 2, 0.15 mM NADH (Sigma, St. Louis, Mo.), and 2 U Sorbitol Dehydrogenase (SDH) (Roche, Indianapolis, Ind.) at about 30° C. […] A Beckman DU-800 spectrophotometer was utilized with an Enzyme Mechanism software package (Beckman Coulter, Inc, Brea, Calif.), and the change in the A340 was monitored for 2-3 minutes.
Data set [3] in a line: Xylose isomerase activity assay (sorbitol dehydrogenase/NADH coupled, Kuyper et al.), soluble whole cell extract. The class given is biochemical, Saccharomyces cerevisiae.
The nature of data set [4]: EDA activity assay with saturating amounts of E. coli expressed EDD extract. The format is biochemical, Saccharomyces cerevisiae.
Method: Grow 5 ml LB-Kan preps of BF1055 (BL21/DE3 with pET26b empty vector) and BF1706 (BL21DE3 with pET26b+E. coli EDD).
Grow 50 ml LB-Kan prep of BF1055, 2% (v/v) inoculate.
Grow 50 ml prep of BF1706 using Novagen's Overnight Express (46.45 ml LB-Kan, 1 ml solution 1, 2.5 ml solution 2, 50 μl solution 3, 5 μl of 1M MnCl2, 50 μl of 0.5 M FeCl2), 2% (v/v) inoculate.
Inoculate to OD600 of 0.2.
EDD extractions (adapted from Chemyan et al, Protein Science 16:2368-2377, 2007): • 1) Pellet cells in 50 ml conical tubes, 4° C., 3,000 rpm, 10 mins, discard supernatant. • 2) Resuspend in 2 ml degassed PDGH buffer (20 mM MES pH 6.5, 30 mM NaCl, 5 mM MnCl2, 0.5 mM FeCl2, 10 mM 2-mercaptoethanol, 10 mM cysteine, sparged with nitrogen gas). Move to hungate tube. • 3) Add 0.1% Triton X-100, 10 ng/ml DNase, 10 μg/ml PMSF, 10 μg/ml TAME (Nα-(p-toluene sulfonyl)-L-arginine methyl ester), 100 μg/ml lysozyme. • 4) Sparge hungate tube with nitrogen gas, cap and seal. Incubate 2 hours at 37° C., swirl occasionally. • 5) Clarify by centrifugation in 2-ml tube, 4° C., 10 mins, 14,000 rpm. Keep supernatant. • 6) Treat with 150 mM pyruvate and 10 mM sodium cyanoborohydride (work in hood) to inactivate aldolase activity. Incubate 30 mins at room temperature. • 7) During incubation, pre-equilibrate PD-10 column from GE • a. Remove top cap, pour off storage buffer. • b. Cut off bottom tip, fit in 50 ml conical with adapter. • c. Pour 5 ml of 20 mM MES buffer, pH 6.5 (total of 5 times). Discard flow-through. • 8) Run sample through column, then add MES buffer to a total of 2.5 ml volume added. Discard flow-through. • 9) Run 3.5 ml 20 mM MES pH 6.5 buffer to elute protein. Discard column in appropriate waste receptacle. • 10) Perform Bradford assay (1:10 or 1:20 dilution). […]
Each reaction contains 50 mM Tris-HCl, pH 7, 10 mM MgCl2, 0.15 mM NADH, 15 μg LDH, saturating amounts of EDD determined empirically (usually ˜100 μg), 1-50 μg EDA (depending on level of activity), and 1 mM 6-phosphogluconate. Reactions are started by the addition of 6-phosphogluconate and monitored for 5 mins at 30° C.
The subject of data set [5] is Saccharomyces cerevisiae (strain BF903). The data set is described as follows: Industrial yeast strain evaluation: ethanol production on xylose in sealed serum bottles. The format is cell-based. The conditions noted are these: strain BF903, YP plus xylose, sealed serum bottle. The procedure:
The serum bottles were sealed with a butyl rubber stopper to prevent air exchange. As a result, the cultures became anaerobic once the available oxygen in the serum bottle was utilized. In general, anaerobiosis (e.g., the onset of anaerobic conditions) occurred a few hours after the culture was inoculated. Xylose utilization, ethanol production and cell growth were measured every twenty four hours.

The subject of data set [6] is C5 strain. The data set is described as follows: Xylose fermentation of C5 strain transformed with xylose isomerase constructs. The format is cell-based, Saccharomyces cerevisiae. From the text: The engineered strain was designed to include the following genetic modifications: the native Pho13 gene (alkaline phosphatase specific for p-nitrophenyl phosphate) was disrupted by inserting a construct containing the native TLK1 gene (Transketolase-1); the native aldose reductase gene (Gre3) was disrupted by inserting a construct containing the native high-affinity glucose transporter-7 gene (HXT7); the native glucose-repressible alcohol dehydrogenase II gene (adh2) was disrupted by inserting a construct containing the native xylulokinase gene (XYLK); and the native orotidine-5′ phosphate decarboxylase gene (ura3) was disrupted by inserting a construct containing the native transaldolase 1 gene (TAL1). The resulting strain had the following genotype: pho13::TKL1, gre3::HXT7, adh-2::XYLK, ura3::TAL1.
The C5 strain was transformed using standard protocols with either p426GPD (as a control) or the chimeric variants XI-R, XI-Rp5, XI-Rp10, or XI-Rp15. The transformed cells were grown on SC-glucose minus uracil initially and then passaged onto SC-xylose minus uracil. Cultures of each of the above constructs were made in SC-xylose minus uracil—and grown for one week. The cultures were grown aerobically at 30° C. with 250 rpm agitation, 1 vvm sparge of process air, 21% O2. The pH was controlled at about 5.0 with 1N NaOH. […] At 24 hours elapsed fermentation time the fermentation was switched to anaerobic conditions. […] Oxygen was purged with 100% N2 sparge at 1 vvm until percent O2 was below 1%. Aeration was then set at 0.25 vvm 100% N2.
The final sample also measured biomass by dry cell weight.

Data set [7] relates to Saccharomyces cerevisiae (strain BF903). The data set is described as follows: Industrial yeast strain evaluation: aerobic growth and xylose consumption in YP-xylose. The class given is cell-based. The conditions noted are these: 30° C., 7 days. The procedure: A commercially available industrial diploid strain of Saccharomyces cerevisiae (strain BF903; “Stillspirits” triple distilled yeast, Brewcraft, Albany, New Zealand; available at Hydrobrew, Oceanside, Calif.) was obtained and was made competent for transformation using known yeast cell transformation procedures. […] Transformed yeast containing each construct were grown overnight aerobically in a 15 ml culture tube on YPD media containing 2% glucose. After about 24 hours, about 25 ml of YP media containing 2% glucose and 100 μg/ml G418 was seeded with the cells at an initial OD600 of 0.5 in a 250 ml Erlenmeyer flask and grown aerobically at 30° C. The cultures were then passaged once every 7 days into fresh media, also at an initial OD600 of 0.5.
Measurements were taken of the cell optical density (OD600) to assess cell density and plated onto YPD with 100 μg/ml G418 to ensure that the plasmid was stable. […] The strains were then grown overnight in YPD (with 100 μg/ml G418) and used to inoculate about 50 ml YP-xylose (with 100 μg/ml G418) into disposable 250 ml Erlenmeyer flasks with vented caps at an initial OD600 of about 1. The cultures were allowed to grow aerobically at 30° C. at 200 rpm for 7 days.

By Ki is commonly meant the dissociation constant of the complex between target and ligand, obtained from inhibition or displacement.

Values joined by “and” are separate entries in the source; they are usually repeats but may differ in a detail not shown here. Equal values may be shown once.

Take “XI-P: xylose isomerase from Piromyces strain E2, SEQ ID NO: 35”: the “Active? (yes/no)” value in data set [1] is “Yes”. In data set [2], the Ki amounted to 4.79 mM. In addition, the “Specific Activity” value in data set [3] (chimeric variants table, xylose 40-500 mM, soluble whole cell extract) was found to be 2.02 µmol/min/mg.

B1: Burkholderia xenovorans: xylose isomerase of this donor organism, expressed in S. cerevisiae (protein, UniProt Q13RB8 1-440, looked up)
Xylose isomerase: MSYFEHIPEIRYEGPQSDNPLAYRHYDKSKKVLGKTLEEHLRIAVCYWHTFVWPGVDIFGQGTFRRPWQQAGDAMERARQKADSAFEFFSKLGTPYYTFHDTDVSPEGSSLKEYSENFLRITDYLARKQEDTGIKLLWGTANLFSHPRYAAGAATSPDPEVFAFAATQVRHALDATQRLGGDNYVLWGGREGYDTLLNTDLMRERDQLARFLHMVVDHAHKIGFKGSLLIEPKPQEPTKHQYDYDVATVHGFLLQHGLEKEIRVNIEANHATLAGHSFHHEIATAYALGIFGSVDANRGDPQNGWDTDQFPNSVEELTLAFYEILKHGGFTTGGMNFDSKVRRQSVDPEDLFYGHIGAIDNLALAVERAAVLIENDRLDQFKRQRYAGWDADFGRKILSGDYSLSTLATDALARGLNPQHASGHQELMENIVNQAIYSGR
For B1, the “Active? (yes/no)” value in data set [1] is recorded as “No”.

B2: R. flavefaciens, FD-1 XI: xylose isomerase of Ruminococcus FD1, ZP_06143883.1, SEQ ID NO: 110 (protein, listed as Ruminococcus flavefaciens)
chain: MEFFKNISKIPYEGKDSTNPLAFKYYNPDEVIDGKKMRDIMKFALSWWHTMGGDGTDMFGCGTADKTWGENDPAARAKAKVDAAFEIMQKLSIDYFCFHDRDLSPEYGSLKDTNAQLDIVTDYIKAKQAETGLKCLWGTAKCFDHPRFMHGAGTSPSADVFAFSAAQIKKALESTVKLGGTGYVFWGGREGYETLLNTNMGLELDNMARLMKMAVEYGRSIGFKGDFYIEPKPKEPTKHQYDFDTATVLGFLRKYGLDKDFKMNIEANHATLAQHTFQHELCVARTNGAFGSIDANQGDPLLGWDTDQFPTNIYDTTMCMYEVIKAGGFTNGGLNFDAKARRGSFTPEDIFYSYIAGMDAFALGYKAASKLIADGRIDSFISDRYASWSEGIGLDIISGKADMAALEKYALEKGEVTDSISSGRQELLESIVNNVIFNL
As to B2, in data set [3] (500 mM xylose, 100 μg total soluble crude extract), the “slope of the activity at saturating xylose (FIG. 25)” value is “highest activity of the candidates tested”. The “specific activity relative to the native XI control” value in data set [3] (xylose between 40 and 500 nM) is on record as “greater than 2 fold”.

B3: Staphylococcus xylosus: xylose isomerase of this donor organism, expressed in S. cerevisiae (protein, UniProt P27157 1-439, looked up)
Xylose isomerase: MSYFDINKVNYEGPKSNNAFSFKYYNPEEKLGNHSMSELLRFSVAYWHTFTADLSDPFGVGVAERDWDSLDEMEKAKARVEAIFEFMEKTRIDYFCFHDVDISPEGASLKESNENLDIIVELIKEKMDQTGKKLLWNTTNNFTHERFVHGAATSSNAEVFAYAAAKVKKSLEIAKKLGSENFVFWGGREGYESLLNTNMKLELDNLATFFKMAKSYADEIGYTGQFLIEPKPKEPTTHQYDTDVATAHAFLQKYDLDKDFKFNIEANHATLAGHTFQHELRYARDNNMLGSVDANQGHPLLGWDTDESTDVYDTTLAMYEILKNGGLAPGGLNFDAKPRRTSFKQEDLILTHIAGMDTFALGLRVAYKMIEDNFFENIMDEKYKSFNEGIGKKIVEGETSLKELEDYAFNINTINNTSDHLEVIKSQINQYILNINNKD
Regarding B3, the “Active? (yes/no)” value in data set [1] was “No”.

B4: EDA-E. coli: 2-keto-3-deoxygluconate-6-phosphate aldolase (eda) of E. coli (protein, UniProt P0A955 1-213, looked up)
KHG/KDPG aldolase: MKNWKTSAESILTTGPVVPVIVVKKLEHAVPMAKALVAGGVRVLEVTLRTECAVDAIRAIAKEVPEAIVGAGTVLNPQQLAEVTEAGAQFAISPGLTEPLLKAATEGTIPLIPGISTVSELMLGMDYGLKEFKFFPAEANGGVKALQAIAGPFSQVRFCPTGGISPANYRDYLALKSVLCIGGSWLVPADALEAGDYDRITKLAREAVEGAKL
As to B4, the “EDA activity compared to the other EDAs, repeated experiment (FIG. 24)” value in data set [4] (100 μg EDD and 25 μg EDA cell lysate (5 μg of E. coli EDA)) is “most active of those EDA's tested”. In addition, in data set [4] (first experiment), the “EDA activity compared to the other EDAs” value is recorded as “higher activity as compared to the other EDA activities”. In addition, the “EDA activity relative to the EDA from P. aeruginosa” value in data set [4] (first experiment, E. coli slope outside linear range) is given as “approximately 16 fold”.

B5: XI-R: native xylose isomerase of Ruminococcus flavefaciens strain 17, SEQ ID NO: 31 (protein, listed as Ruminococcus flavefaciens)
chain: MEFFSNIGKIQYQGPKSTDPLSFKYYNPEEVINGKTMREHLKFALSWWHTMGGDGTDMFGCGTTDKTWGQSDPAARAKAKVDAAFEIMDKLSIDYYCFHDRDLSPEYGSLKATNDQLDIVTDYIKEKQGDKFKCLWGTAKCFDHPRFMHGAGTSPSADVFAFSAAQIKKALESTVKLGGNGYVFWGGREGYETLLNTNMGLELDNMARLMKMAVEYGRSIGFKGDFYIEPKPKEPTKHQYDFDTATVLGFLRKYGLDKDFKMNIEANHATLAQHTFQHELRVARDNGVFGSIDANQGDVLLGWDTDQFPTNIYDTTMCMYEVIKAGGFTNGGLNFDAKARRGSFTPEDIFYSYIAGMDAFALGFRAALKLIEDGRIDKFVADRYASWNTGIGADIIAGKADFASLEKYALEKGEVTASLSSGRQEMLESIVNNVLFSL
With B5, in data set [1], the “Active? (yes/no)” value is listed as “Yes”. Further, in data set [5], the “cell growth (cell density)” value was “grew to a higher cell density” and the ethanol production entry is on record as “produced more ethanol”. Moreover, in data set [6] (final sample at 372 hours), the “Dry Cell Wt” value is 2.20 g/L and 2.03 g/L; the “Ethanol” value was 15.65 g/L and 15.5 g/L; the “Glucose” value was determined as 0 g/L; the “Xylose” value is 3.14 g/L and 3.85 g/L. In addition, the OD600 nm in data set [6] (final sample at 372 hours after commencing fermentation) was 7.72 and 7.32. In data set [3] (xylose isomerase expressed in S. cerevisiae, total soluble crude extract, xylose concentrations between 40 and 500 nM (so in the source), Michaelis-Menten plot), the “Specific Activity” value was 0.9605 µmol/min/mg. The xylose consumption result in data set [7] is on record as “more efficient at consuming xylose”.

B6: Bacillus licheniformis: xylose isomerase of this donor organism, expressed in S. cerevisiae (protein, UniProt P77832 1-448, looked up)
Xylose isomerase: MFFRNIGMIEYEGADSENPYAFKYYNPDEFVGGKTMKEHLRFAVAYWHTFDADGKDPFGDGTMFRAWNRLTHPLDKAKARAEAAFEFFEKLGVPYFCFHDVDIVDEGATLRETFTYLDQMSSFLKEMMETSHVQLLWNTANMFTHPRYVHGAATSCNADVYAYAAAKVKKGLDIAKELGAENYVFWGGREGYETLLNTDMKLELENLSSFYRMAVEYAREIGFDGQFLIEPKPKEPTKHQYDFDAATTIAFLETYGLKDHFKLNLEANHATLAGHTFEHELRVAALHDMLGSIDANQGDLLLGWDTDEFPTDLYSAVLAMYEILKAGGFKTGGINFDAKVRRPSFADEDLFHAHIAGMDTYAVGLKVASRLLEDKALDQVIEERYESYTKGIGLEIKEGRTDLKKLAAYALENDHIENQSGRQERLKATVNRYLLNALREAPAGKETH
For the molecule B6, the “Active? (yes/no)” value in data set [1] is listed as “No”.
